Measured values reported in patent US7803572B2, “Protease detection assay” (Atlas Genetics, Ltd., priority 2003, dated 2010).

Key:
Assay type in all cases: biochemical
porcine pancreas trypsin [1] = molecular target: T1, porcine pancreas trypsin (Sus scrofa, UniProt P00761); test: Effect of a protease inhibitor on electrochemical marker signal (trypsin digestion of Fc-BSA); conditions: reaction (i): no inhibitor added
T1 construct: purchased Sigma; host or cells: porcine pancreas
Description: (§1) Protease assays were performed as follows unless stated otherwise. […] Samples were incubated at 37° C. for 1 hour.
Five digestions of Fc-BSA with trypsin were carried out using the protocol described above. In addition, soybean trypsin inhibitor was added to reaction mixtures […]. Solutions of the soybean trypsin inhibitor were prepared by resuspending inhibitor as supplied in deionised water to a concentration of 10 mg/ml and 1 mg/ml as appropriate. No inhibitor was added to reaction (i); 0.5 μl of 1 mg/ml inhibitor solution was added to reaction (ii); […] of 10 mg/ml inhibitor was added to reaction (iii); 5 μl of 10 mg/ml inhibitor solution was added to reaction (iv) and 5 μl of 10 mg/ml inhibitor solution was added to a no-trypsin control reaction. The differential pulse voltammogram results are shown in FIG. 16 with baseline correction.

carboxypeptidase = test: Digestion of Fc-BSA with carboxypeptidase, differential pulse voltammetry
Description: as §1
A digestion of Fc-BSA with carboxypeptidase was carried out as described above. […] The positive reaction has a peak position of 435 mV and a peak height of 1.31×10^−7 A; the no elastase control reaction has a peak position of 427 mV and a peak height of 6.86×10^−8 A.

[2] = molecular target: T2, type II bovine pancreas α-chymotrypsin (Bos taurus, UniProt P00766); test: Digestion of Fc-BSA with α-chymotrypsin, differential pulse voltammetry
T2 construct: purchased Sigma; host or cells: bovine pancreas
Description: as §1
A digestion of Fc-BSA with α-chymotrypsin was carried out as described above. […] The positive reaction has a peak position of 438 mV and a peak height of 4.48×10^−7 A; the no α-chymotrypsin control reaction has a peak position of 432 mV and a peak height of 2.55×10^−8 A.

porcine pancreas trypsin [3] = molecular target: T1, porcine pancreas trypsin; test: Digestion of labelled protein with trypsin, differential pulse voltammetry
Description: as §1
A digestion of Fc-BSA with trypsin was carried out as described above. […] The positive reaction has a peak position of 435 mV and a peak height of 4.58×10^−7 A; the no trypsin control reaction has a peak position of 432 mV and a peak height of 2.55×10^−8 A.
A digestion of unlabelled BSA with trypsin was carried out in the same manner as for the labelled molecules as described above. The differential pulse voltammogram results are shown in FIG. 10 in which (a) is the trace for a no-trypsin control reaction and (b) is the trace for trypsin BSA reaction.
A digestion of FcU-BSA with trypsin was carried out as described above. […] The positive reaction has a peak position of 97 mV and a peak height of 5.01×10^−7 A; there was no peak in the no-trypsin control reaction. […]
Five digestions of Fc-BSA with trypsin were carried out using the protocol described above. As described in the general protocol, 2 μl of enzyme was used for each 200 μl reaction; for reaction (i) 10 mg/ml enzyme solution was used; reaction (ii): 1 mg/ml; reaction (iii) 0.1 mg/ml; reaction (iv) 0.01 mg/ml and reaction (v) was a no-trypsin control. The differential pulse voltammogram results are shown in FIG. 14 with baseline correction.
Five digestions of Fc-BSA with trypsin were carried out using the protocol described above. In reaction (i) the incubation at 37° was carried out for 60 minutes, in reaction (ii) for 15 minutes, in reaction (iii) for 5 minutes, in reaction (iv) for 2 minutes and reaction (v) was a 0 minutes no-trypsin control. The differential pulse voltammogram results are shown in FIG. 15 with baseline correction.

elastase = test: Digestion of Fc-BSA with elastase, differential pulse voltammetry
Description: as §1
A digestion of Fc-BSA with elastase was carried out as described above. […] The positive reaction has a peak position of 430 mV and a peak height of 2.57×10^−7 A; the no elastase control reaction has a peak position of 432 mV and a peak height of 2.55×10^−8 A.

[4] = positive reaction, 37° C. for 1 hour
[5] = no α-chymotrypsin control reaction
[6] = Example 6 reaction (i): 2 μl of 10 mg/ml enzyme solution
[7] = Example 6 reaction (ii): 1 mg/ml enzyme solution
[8] = Example 6 reaction (iii): 0.1 mg/ml enzyme solution
[9] = Example 6 reaction (iv): 0.01 mg/ml enzyme solution
[10] = Example 6 reaction (v): no-trypsin control
[11] = Example 7 reaction (i): incubation at 37° for 60 minutes
[12] = Example 7 reaction (ii): 15 minutes
[13] = Example 7 reaction (iii): 5 minutes
[14] = Example 7 reaction (iv): 2 minutes
[15] = Example 7 reaction (v): 0 minutes no-trypsin control
[16] = positive reaction, 2 μl enzyme (10 mgml^−1), 37° C. for 1 hour

T1 sequence (P00761 9-231): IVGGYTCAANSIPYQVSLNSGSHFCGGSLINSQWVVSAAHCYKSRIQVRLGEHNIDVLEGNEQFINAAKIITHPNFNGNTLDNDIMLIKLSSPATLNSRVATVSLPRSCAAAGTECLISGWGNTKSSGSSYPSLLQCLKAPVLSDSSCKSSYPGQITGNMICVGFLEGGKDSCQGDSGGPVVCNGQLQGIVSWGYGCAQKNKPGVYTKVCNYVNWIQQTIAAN

For “Fc-BSA: Bovine serum albumin labelled with ferrocene methanoyl groups via N-hydroxysuccinimide ester; estimated 10 to 20 ferrocenes per BSA”, the peak height (porcine pancreas trypsin [1]) was 2.56×10^−7 A, the peak position (porcine pancreas trypsin [1]) was 439 mV and the peak height (carboxypeptidase; no elastase control reaction (so in the source)) was 6.86×10^−8 A. For the same substance, the peak height (carboxypeptidase; [4]) was 1.31×10^−7 A, the peak height [2, 5] was 2.55×10^−8 A and the peak position [2, 5] was 432 mV. For the same substance, the peak height [2, 4] was 4.48×10^−7 A, the peak position [2, 4] was 438 mV and the peak height (porcine pancreas trypsin [3]; [6]) was 5.42×10^−7 A. The peak position (porcine pancreas trypsin [3]; [6]) was 430 mV, the peak height (porcine pancreas trypsin [3]; [7]) was 2.29×10^−7 A and the peak position (porcine pancreas trypsin [3]; [7]) was 428 mV. The peak height (porcine pancreas trypsin [3]; [8]) was 1.04×10^−7 A, the peak position (porcine pancreas trypsin [3]; [8]) was 429 mV and the peak height (porcine pancreas trypsin [3]; [9]) was 7.53×10^8 A. For the same substance, the peak position (porcine pancreas trypsin [3]; [9]) was 429 mV, the peak height (porcine pancreas trypsin [3]; [10]) was 3.17×10^−9 A and the peak position (porcine pancreas trypsin [3]; [10]) was 448 mV. The peak height (porcine pancreas trypsin [3]; [11]) was 2.49×10^−7 A, the peak position (porcine pancreas trypsin [3]; [11]) was 435 mV and the peak height (porcine pancreas trypsin [3]; [12]) was 1.88×10^−7 A. For the same substance, the peak position (porcine pancreas trypsin [3]; [12]) was 429 mV, the peak height (porcine pancreas trypsin [3]; [13]) was 1.57×10^−7 A and the peak position (porcine pancreas trypsin [3]; [13]) was 435 mV. For the same substance, the peak height (porcine pancreas trypsin [3]; [14]) was 1.04×10^−7 A, the peak position (porcine pancreas trypsin [3]; [14]) was 428 mV and the peak height (porcine pancreas trypsin [3]; [15]) was 2.11×10^−8 A. For the same substance, the peak position (porcine pancreas trypsin [3]; [15]) was 460 mV, the peak height (porcine pancreas trypsin [3]; no-trypsin control reaction) was 2.55×10^−8 A and the peak position (porcine pancreas trypsin [3]; no-trypsin control reaction) was 432 mV. The peak height (porcine pancreas trypsin [3]; [16]) was 4.58×10^−7 A, the peak position (porcine pancreas trypsin [3]; [16]) was 435 mV and the “factor by which current observed at 435 mV increases upon digestion” value (porcine pancreas trypsin [3]; trypsin digestion vs no-trypsin control, FIG. 3) was 18. The peak height (elastase; no elastase control reaction) was 2.55×10^−8 A and the peak height (elastase; positive reaction, tris HCl pH 8.5, 37° C. for 1 hour) was 2.57×10^−7 A.
